Results taken from patent US20210002356A1 (ZHUHAI TRINOMAB BIOTECHNOLOGY, published 2021).

B1: TRN0010 antibody (antibody, V domains shown)
VH: QVQLQESGPGLVKPSETLSLRCTVSGGSISSYYWSWFRQPPGKGLEWIGYVHYSGSTNYNPSLKSRFTLSVDTSKSQFSLRLRSVTAADTAIYYCARDKYQTDVSDIWGQGTVVTVSS
VL: DIQMTQSPGTLSLSPGERATLSCRASQSITSSFLAWYQQKPGQAPRLLIYGASSRATGIPDRFSGSGSGTDFILTISRLEPEDFAVYYCQQYDTSRTFGQGTTVEIK
B2: TRN0012 antibody (antibody, V domains shown)
VH: EVQLVQSGAEVKKPGESLRISCQGSGYTFTNYWIGWVRQMPGKGLEWMGIVYPGDSDTRYSPSFQGQITISADKSISTAYLQWNNLKASDTGMYYCATQQSNPYDSGSYWYFDSWGQGTLVTVSS
VL: DIVMTQSPPSLSASIGDRVTITCRASQGIRNFLAWYQQKPGKVPKLLIYAASTLQSGVPSRFSGSGSGTDFTLTISSLQPEDVATYYCQKYFSAPPDFGQGTRLEIK

Target: tetanus toxin (Clostridium tetani, UniProt P04958 2-1315)
Sequence (P04958 2-457 limits assumed, chain 1 of 2): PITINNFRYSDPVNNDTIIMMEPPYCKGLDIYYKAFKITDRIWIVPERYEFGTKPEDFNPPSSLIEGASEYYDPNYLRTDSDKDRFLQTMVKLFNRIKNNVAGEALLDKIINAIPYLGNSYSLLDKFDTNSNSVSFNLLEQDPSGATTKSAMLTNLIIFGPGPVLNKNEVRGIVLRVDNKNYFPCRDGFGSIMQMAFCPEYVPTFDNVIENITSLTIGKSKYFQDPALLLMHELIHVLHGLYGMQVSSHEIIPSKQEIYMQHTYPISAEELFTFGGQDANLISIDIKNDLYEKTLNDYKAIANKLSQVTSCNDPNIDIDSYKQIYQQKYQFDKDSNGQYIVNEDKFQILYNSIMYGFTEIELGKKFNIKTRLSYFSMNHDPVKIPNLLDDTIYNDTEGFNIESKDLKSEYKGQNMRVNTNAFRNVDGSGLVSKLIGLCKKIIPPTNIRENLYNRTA
Sequence (P04958 458-1315 limits assumed, chain 2 of 2): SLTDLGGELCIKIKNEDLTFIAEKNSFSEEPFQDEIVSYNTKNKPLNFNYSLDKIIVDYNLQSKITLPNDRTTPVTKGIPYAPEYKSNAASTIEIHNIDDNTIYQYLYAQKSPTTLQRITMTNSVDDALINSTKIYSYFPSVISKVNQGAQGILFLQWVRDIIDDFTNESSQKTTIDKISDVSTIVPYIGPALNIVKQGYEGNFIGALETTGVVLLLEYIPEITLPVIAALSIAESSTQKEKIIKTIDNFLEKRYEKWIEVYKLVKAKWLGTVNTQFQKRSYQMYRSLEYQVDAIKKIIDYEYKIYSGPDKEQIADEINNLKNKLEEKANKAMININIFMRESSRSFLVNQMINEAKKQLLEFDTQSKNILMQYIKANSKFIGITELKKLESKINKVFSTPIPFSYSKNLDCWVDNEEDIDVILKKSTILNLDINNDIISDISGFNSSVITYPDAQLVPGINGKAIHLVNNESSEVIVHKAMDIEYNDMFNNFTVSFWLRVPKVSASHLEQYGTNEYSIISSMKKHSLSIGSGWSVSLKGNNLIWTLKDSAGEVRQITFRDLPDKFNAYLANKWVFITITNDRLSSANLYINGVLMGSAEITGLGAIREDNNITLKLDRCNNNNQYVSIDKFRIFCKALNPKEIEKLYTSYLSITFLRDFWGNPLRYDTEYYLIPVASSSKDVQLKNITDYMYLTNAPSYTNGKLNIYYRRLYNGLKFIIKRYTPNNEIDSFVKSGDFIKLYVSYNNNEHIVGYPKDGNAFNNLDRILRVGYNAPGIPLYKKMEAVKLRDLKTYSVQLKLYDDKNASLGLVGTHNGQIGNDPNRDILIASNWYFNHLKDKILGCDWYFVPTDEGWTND

| Binder | Kd | koff | kon |
| --- | --- | --- | --- |
| B1 | 3.68 nM | 0.000153 s⁻¹ | 41500 M⁻¹ s⁻¹ |
| B2 | 4.07 nM | 0.000328 s⁻¹ | 80600 M⁻¹ s⁻¹ |
